Test results taken from patent US12187807B2, “Antibody molecules to C5AR1 and uses thereof” (Visterra, Inc., priority 2020, dated 2025).
Substitutions are numbered along the chain they refer to.

T1: human C5aR1 transiently expressed on the surface of Expi293 cells (Homo sapiens, UniProt P21730, K279N)
T1 construct: expressed in transfected cells; host or cells: Expi293 cells, transient
T1 sequence (P21730 with tags, fused parts or gaps K279N limits assumed): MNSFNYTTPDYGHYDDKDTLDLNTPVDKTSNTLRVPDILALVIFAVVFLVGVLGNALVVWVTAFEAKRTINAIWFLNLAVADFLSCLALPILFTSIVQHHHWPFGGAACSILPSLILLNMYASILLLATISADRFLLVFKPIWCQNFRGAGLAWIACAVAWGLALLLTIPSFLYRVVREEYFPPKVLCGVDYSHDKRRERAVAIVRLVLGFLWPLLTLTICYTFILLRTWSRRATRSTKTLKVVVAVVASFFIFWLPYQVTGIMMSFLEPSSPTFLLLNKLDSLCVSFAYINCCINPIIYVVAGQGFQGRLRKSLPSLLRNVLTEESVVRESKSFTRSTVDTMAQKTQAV

T2: C5aR1 (C5aR1-U937 cells) (Homo sapiens, UniProt P21730, K279N)
T2 construct: expressed in transfected cells
T2 sequence (P21730 with tags, fused parts or gaps K279N limits assumed): T1 sequence (P21730 with tags, fused parts or gaps K279N limits assumed)

T3: C5aR1 (Homo sapiens, UniProt P21730)
T3 sequence (P21730 1-350): T1 sequence (P21730 with tags, fused parts or gaps K279N limits assumed) with N2D, N279K

T4: C5aR1 (human neutrophils) (Homo sapiens, UniProt P21730)
T4 construct: neutrophils isolated from whole blood; host or cells: human neutrophils (cryopreserved, or isolated from whole blood)
T4 sequence (P21730 1-350): T1 sequence (P21730 with tags, fused parts or gaps K279N limits assumed) with N2D, N279K

T5: biotinylated peptide representing the N-terminus of C5aR1 with tyrosine sulfation (Homo sapiens, UniProt P21730)
T5 construct: the N-terminus with tyrosine sulfation
T5 sequence (P21730 1-37): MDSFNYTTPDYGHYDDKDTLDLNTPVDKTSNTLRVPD

T6: biotinylated peptide representing the N-terminus of C5aR1 without tyrosine sulfation (Homo sapiens, UniProt P21730)
T6 construct: the N-terminus without tyrosine sulfation
T6 sequence (P21730 1-37 limits assumed): T5 sequence (P21730 1-37)

B1: Clone_317v2-1 (antibody, V domains shown)
VH: QVQLQQPGAELVMPGASVKLSCKASGYTFTSYWMHWVKQRPGQGLEWIGEIDPSDSYTNYNQKFKGKATLTVDKSSSTAYMQLSSLTSEDSAVYYCARVAYYSNFGGFAYWGQGTTVTVSS
VL: DIVMTQSPSSLSVSAGEKVTMSCKSSQSLLKSGNQKNYLAWHQQKPGQPPKLLIYGASTRESGVPDRFTGSGSGTDFTLTISSVQAEDLAVYYCQNDHSHPYTFGGGTKLEIK
B2: clone 11v2: anti-C5aR1 Site II antibody; VH SEQ ID NO: 482, VL SEQ ID NO: 542 (antibody, V domains shown)
VH: QVQLQQSGPELVKPGASVKISCKASGYSFSSSWMNWVKQRPGKGLEWIGRISPGDGDTRYSGKFKGKATLTADKSSSTAYMQVTSLTSEDSAIYFCVRFLITSTRYVMDYWGQGTTVTVSS
VL: DVVMTQTPLSLPVSLGDQASISCRSSQSLVHSNGNTYLHWYLQKPGQSPKLLIYKVSNRFSGVPDRFSGSGSGTDFTLKISRVEAEDLGVYFCSQSTLVPPTFGGGTKLEIK
B3: Clone_336_v2-1 (antibody, V domains shown)
VH: QVQLKQSGPGLVQSSQSLSITCTVSGFSLISYGVHWVRQSPGKGLEWLGVIWSGGSTDYNAAFKSRLSITKDNSKSQVFFKMNSLQADDTAIYYCAKNSQLGNAMDYWGQGTTVTVSS
VL: DIVMSQSPSSLAVSAGEKVTMSCKSSQSLLSSRTRKNYLAWYQQKPGQSPKLLIYWASTRESGVPDRFTGSGSGTDFTLTISSVQAEDLALYFCNQSYDLLTFGAGTKLEIK
B4: clone 336v2-1: exemplary anti-C5aR1 antibody, Table 1C (antibody, V domains shown)
VH: B3 VH
VL: B3 VL
B5: clone 322: anti-C5aR1 Site I antibody; VH SEQ ID NO: 491, VL SEQ ID NO: 551 (antibody, V domains shown)
VH: QVQLQQSDAALVKPGASVKISCKASGHTFTDHAIHWVKQRPEQGLEWIGYISPGNGDIKYNDKFKGKATLTADKSSSTAYMQLNSLTPEDSAVYFCKGPLFVRGQYYITMDYWGQGTTVTVSS
VL: DIVMTQSQKFMSTTVGDRVSITCKASQNVGAAVVWYQQKPGQSPKLLIYSASYRYSGVPDRFTGSGSGTDFTLTISNMQSEDLADYFCQQYNSFPLTFGGGTKLEIK

What was measured:
[1] = target: T1, human C5aR1 transiently expressed on the surface of Expi293 cells; experiment: Cell surface binding (flow cytometry), Expi293 cells transiently expressing human C5aR1; conditions: staining with 100 nM of antibody
Experimental: (§1) Follow up screening to ensure specificity was performed by measuring cell surface binding to cells expressing, for example, human C5aR1, human C5aR2, mouse C5aR1, and control cells that were mock transfected. Briefly, cell surface binding was performed on various C5aR1 expressing cell lines (transiently expressed Expi293 cells, stable C5aR1-U937 cells, and neutrophils isolated from whole blood). Briefly, a titration of antibody diluted in flow buffer (1×PBS with 2% fetal bovine serum) was incubated with cells for 1 hour at 4° C. Cells were washed twice with flow buffer. Anti-human-APC secondary antibody was diluted 1:400 in flow buffer and incubated with cells for 30 minutes. Cells were washed twice with flow buffer and resuspended in 100 μL of flow buffer. Fluorescence was measured using the iQue Screen Plus flow cytometer.

[2] = system: control cells that were mock transfected; experiment: Cell surface binding (flow cytometry), mock transfected Expi293 control cells; conditions: staining with 100 nM of antibody
Experimental: as §1

C5aR1 (C5aR1-U937 cells) [3] = target: T2, C5aR1 (C5aR1-U937 cells); experiment: C5a induced chemotaxis (transwell), C5aR1-U937 cells; format: cell-based; conditions: C5aR1-U937 cells; 1, 10, or 100 nM antibody; C5a 10^−6 to 10^−9.5 M
Source text: (§2) One of the primary mechanisms by which neutrophils migrate to the site of inflammation is by chemotaxis induced by a C5a/C5adesArg gradient is detected by C5aR1 signaling. Anti-C5aR1 antibodies were thus assessed in a chemotaxis assay for their ability to block C5a induced migration of neutrophils. The assay involved cell migration in a double chamber well separated by filters. The cells and inhibitors were applied into the upper chamber and the lower chamber was filled with the chemoattractant, causing the cells to migrate to the lower chamber. The inhibition activity was evaluated by counting the migrated cell numbers. Specifically, a titration of C5a was added to the bottom chamber a 96 transwell plate. Cells expressing human C5aR1 (C5aR1-U937 cells or human neutrophils) were incubated with or without antagonist and then seeded into the top chamber of the transwell plate. The cells were incubated for 2 hours. Cells that migrated to the bottom chamber were quantified using the CyQUANT cell proliferation kit following the manufacturer's protocol. The assay was performed using engineered cells stably expressing C5aR1 as well as using human neutrophils.
as §2, with “Anti-C5aR1” for “One of the primary mechanisms by which neutrophils migrate to the site of inflammation is by chemotaxis induced by a C5a/C5adesArg gradient is detected by C5aR1 signaling. Anti-C5aR1”, “were” for “were thus”
In a first experiment, C5aR1-U937 cells were seeded into the top chamber of a 96 Transwell plate in the presence of no antibody (antagonist), or of 1, 10, or 100 nM antibody (antagonist).

C5aR1 (C5aR1-U937 cells) [4] = target: T2, C5aR1 (C5aR1-U937 cells); experiment: C5a induced calcium flux (Fluo-4), C5aR1-U937 cells; format: cell-based
Source text: (§3) Intracellular calcium is released into the cytoplasm by stimulation of GPCRs and acts as a second messenger of GPCR signaling, commonly used to quantify GPCR agonism and antagonism. As such, calcium flux assays using calcium sensitive dye were utilized to detect cytosolic changes in calcium concentration. […] The dye penetrated the cell membrane and became active once inside the cell. The active form of the dye became fluorescent after binding to intracellular calcium and the fluorescence was used to determine C5aR1 signaling in response to C5a addition. Specifically, stable C5aR1-U937 cells or neutrophils isolated from whole blood were stained with Fluo-4 Direct Calcium Assay kit from Thermo Fisher for 1 hour at 37° C. Next, antibody or antagonist was incubated with the cells for 30 minutes. The basal fluorescence with an excitation at 494 nm and emission at 516 nm was measured for 15 seconds. C5a was added to the cells and the fluorescence was measured over a span of four minutes. The basal read from before C5a stimulation and the max signal after C5a stimulation were used to calculate the response ratio. The potency of the antibodies was assessed for their ability to inhibit intracellular calcium release in C5aR1 expressing cells in the presence of C5a. Similar to the chemotaxis assay, the calcium flux assays were performed using engineered cells stably expressing C5aR1 as well as using human neutrophils.

[5] = target: T7, biotinylated peptide representing ECL2 of C5aR1 (Homo sapiens, UniProt P21730); experiment: Epitope mapping by biolayer interferometry, ECL2 peptide; format: binding; parameters: key: “+” indicates binding to the listed peptide; “−” indicates lack of binding to the listed peptide; conditions: biolayer interferometry, 10 μg/mL of antibody, biotinylated peptide on streptavidin biosensor
T7 construct: cyclic ECL2 peptide spanning from residues R175 to C188
Experimental: (§4) The epitope mapping was undertaken, using biolayer interferometry, on a series of exemplary anti-C5aR1 antibodies generated as described in Example 1. Briefly, for each antibody, biotinylated peptides representing ECL2, the N-terminus with tyrosine sulfation, and the N-terminus without tyrosine sulfation, were immobilized in a streptavidin biosensor. Subsequently, the biosensor was exposed to 10 μg/mL of antibody to detect antibody binding to the immobilized peptide. The results of the epitope mapping study are shown in Table 4 (“+” indicates binding to the listed peptide; “−” indicates lack of binding to the listed peptide).

C5aR1 = target: T3, C5aR1; experiment: GeneBLAzer reporter assay (C5aR1 mediated Gα signaling); format: cell-based; parameters: host or cells: vendor's C5aR1 GeneBLAzer reporter cell line; conditions: 10 nM of antibody, 10 nM C5a
Experimental: In addition, a GeneBLAzer reporter assay was used, which mimics the calcium flux assay. The GeneBLAzer assay kit and C5aR1 cell line were commercially available from Thermo Fisher (Catalog #K1544). The assay was performed as recommend by the manufacturer. Briefly, antibodies or antagonists were incubated for 30 minutes at 37° C. C5a was then added to the cells and incubated at 37° C. for an additional 4-5 hours. Beta-lactamase substrate was then added and incubated for 2 hours at room temperature. Fluorescent measurements for each well with an excitation/emission of 409/460 (blue) and 409/530 (green) were measured. An increase in the blue to green ratio was proportional to C5aR1 activation and was used to calculate the percent of activation for the cells in each well.
Exemplary anti-C5aR1 antibodies generated as described in Example 1 were screened for antagonist activity against human C5aR1 using the GeneBLAzer assay, as described in Example 1. Briefly, cells were pre-incubated with 10 nM of antibody followed by addition of 10 nM C5a. The engineered induction of beta-lactamase expression by C5a-C5aR1 signaling was measured using the BLA substrate and calculating the ratio of blue and green fluorescence.

[6] = target: T4, C5aR1 (human neutrophils); experiment: C5a induced calcium flux (Fluo-4), human neutrophils; format: cell-based
Source text: as §3

[7] = target: T5, biotinylated peptide representing the N-terminus of C5aR1 with tyrosine sulfation; experiment: Epitope mapping by biolayer interferometry, N-terminus with tyrosine sulfation; format: binding; parameters: key: “+” indicates binding to the listed peptide; “−” indicates lack of binding to the listed peptide; conditions: 10 μg/mL of antibody, biotinylated peptide on streptavidin biosensor
Experimental: as §4

[8] = target: T6, biotinylated peptide representing the N-terminus of C5aR1 without tyrosine sulfation; experiment: Epitope mapping by biolayer interferometry, N-terminus without tyrosine sulfation; format: binding; parameters: key: “+” indicates binding to the listed peptide; “−” indicates lack of binding to the listed peptide; conditions: 10 μg/mL of antibody, biotinylated peptide on streptavidin biosensor
Experimental: as §4

Row | Molecule | Cell surface binding, Human C5aR1, geometric mean fluorescent intensity [1] | Cell surface binding, Mock transfection, geometric mean fluorescent intensity [2] | Binding to Cyclic ECL2 peptide [5] | antagonism of C5aR1 compared to reference antibodies or to Avacopan (C5aR1) | Binding to Sulfated N-terminal peptide [7] | Binding to Non-sulfated N-terminal peptide [8] | also measured
1 | B1 | 8,106 | 4,535 Clone_507 |  |  |  |  | 
2 | B2 |  |  | + | improved | − | − | inhibition of cell chemotaxis (C5aR1 (C5aR1-U937 cells) [3]): strongest effects; inhibition of C5a induced intracellular calcium flux (C5aR1 (C5aR1-U937 cells) [4]): inhibition of the C5a induced calcium efflux; inhibition of C5a induced calcium efflux [6]: inhibition of the C5a induced calcium efflux
3 | B3 | 223,156 | 5,007 Clone_511v2 |  |  |  |  | 
4 | B4 |  |  | + |  | − | − | 
5 | B5 |  |  |  | comparable |  |  | 
